Results taken from US20130225506A1 (POLYPHOR, published 2013).
Numbered stars: 1 amine (or outer) side, 2 acyl side, 3 side chain; on linkers, the order of the positions; unused ones are H or OH. Square brackets hold non-standard residues; d marks the D form. Primed or numbered codes have the meaning given here. Pro((4S)NHBz) = proline with (4S)-NHBz, O=C(N[C@H]1C[C@@H](C(=O)[*:2])N([*:1])C1)c1ccccc1; (4S)Hyp(Bn) = O=C([C@@H]1C[C@H](OCc2ccccc2)CN1[*:1])[*:2]; dPro(cis-4-NH2) = N[C@H]1CN[C@@H](C(=O)O)C1; 1Nal = N[C@@H](Cc1cccc2ccccc12)C(=O)O; 2Nal = N[C@@H](Cc1ccc2ccccc2c1)C(=O)O; Pro(3S-OH) = O=C(O)[C@H]1NCC[C@@H]1O; hArg = N=C(N)NCCCC[C@H](N)C(=O)O; dHyp = O=C(O)[C@H]1C[C@H](O)CN1; dTic = O=C(O)[C@H]1Cc2ccccc2CN1; Cha = N[C@@H](CC1CCCCC1)C(=O)O; Chg = N[C@H](C(=O)O)C1CCCCC1; Orn(A41) = not defined here; Orn(A56) = not defined here; Orn(Ar2) = not defined here; Orn(Ar4) = not defined here; Orn(Ar7) = not defined here; dOrn = NCCC[C@@H](N)C(=O)O; dDab = NCC[C@@H](N)C(=O)O; Nle = CCCC[C@H](N)C(=O)O; Orn = NCCC[C@H](N)C(=O)O; dPip′ = not defined here; Abu = CC[C@H](N)C(=O)O; Mor = not defined here

target: chemokine receptor CXCR7 (UniProt P25106 1-362, limits assumed); test: cell-based or functional assay
Sequence (P25106 whole entry): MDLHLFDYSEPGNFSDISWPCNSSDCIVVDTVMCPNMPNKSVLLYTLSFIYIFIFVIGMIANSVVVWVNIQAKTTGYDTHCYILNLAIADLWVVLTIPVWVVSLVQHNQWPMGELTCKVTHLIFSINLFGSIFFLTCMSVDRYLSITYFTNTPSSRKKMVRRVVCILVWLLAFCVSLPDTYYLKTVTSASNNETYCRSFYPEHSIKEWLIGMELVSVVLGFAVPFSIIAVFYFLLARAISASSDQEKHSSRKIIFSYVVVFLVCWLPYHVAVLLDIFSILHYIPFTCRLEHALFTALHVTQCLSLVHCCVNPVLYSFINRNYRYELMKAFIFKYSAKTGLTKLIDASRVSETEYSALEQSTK

| β-Arrestin EC50 | Binder |
| --- | --- |
| 46.4 nM | cyclo(I[dR]RF[dP]T) (SMILES CC[C@H](C)[C@@H]1NC(=O)[C@H]([C@@H](C)O)NC(=O)[C@H]2CCCN2C(=O)[C@H](Cc2ccccc2)NC(=O)[C@H](CCCNC(=N)N)NC(=O)[C@@H](CCCNC(=N)N)NC1=O) [cyclo(-Ile-^DArg-Arg-Phe-^DPro-Thr-)] |
| 13.7 nM | cyclo([1Nal][dR]RW[dP][Pro(3S-OH)]) (SMILES N=C(N)NCCC[C@@H]1NC(=O)[C@@H](CCCNC(=N)N)NC(=O)[C@H](Cc2cccc3ccccc23)NC(=O)[C@@H]2[C@@H](O)CCN2C(=O)[C@H]2CCCN2C(=O)[C@H](Cc2c[nH]c3ccccc23)NC1=O) [cyclo(-1Nal-^DArg-Arg-Trp-^DPro-Pro((3S)OH)-)] |
| 7.6 nM | cyclo(W[dF]WR[dHyp][(4S)Hyp(Bn)]) (SMILES N=C(N)NCCC[C@@H]1NC(=O)[C@H](Cc2c[nH]c3ccccc23)NC(=O)[C@@H](Cc2ccccc2)NC(=O)[C@H](Cc2c[nH]c3ccccc23)NC(=O)[C@@H]2C[C@H](OCc3ccccc3)CN2C(=O)[C@H]2C[C@H](O)CN2C1=O) [cyclo(-Trp-^DPhe-Trp-Arg-^DPro((4S)OH)-(4S)-Hyp(Bn)-)] |
| 453 nM | cyclo(I[dR][Orn(Ar2)]W[dP]T) (reading uncertain; also: printed as cyclo(-Ile-^DArg-Orn(Ar2)-Trp-^DPro-Thr-)) [cyclo(-Ile-^DArg-Orn(Ar2)-Trp-^DPro-Thr-)] |
| 5.3 nM | cyclo(L[dR]RW[dP]T) (SMILES CC(C)C[C@@H]1NC(=O)[C@H]([C@@H](C)O)NC(=O)[C@H]2CCCN2C(=O)[C@H](Cc2c[nH]c3ccccc23)NC(=O)[C@H](CCCNC(=N)N)NC(=O)[C@@H](CCCNC(=N)N)NC1=O) [cyclo(-Leu-^DArg-Arg-Trp-^DPro-Thr-)] |
| 330 nM | cyclo([Abu][dR]RW[dP]T) (SMILES CC[C@@H]1NC(=O)[C@H]([C@@H](C)O)NC(=O)[C@H]2CCCN2C(=O)[C@H](Cc2c[nH]c3ccccc23)NC(=O)[C@H](CCCNC(=N)N)NC(=O)[C@@H](CCCNC(=N)N)NC1=O) [cyclo(-Abu-^DArg-Arg-Trp-^DPro-Thr-)] |
| 26.9 nM | cyclo(W[dF]WR[dP][Pro((4R)NH2)]) [cyclo(-Trp-^DPhe-Trp-Arg-^DPro-Pro((4R)NH2)-)] |
| 11 nM | cyclo(I[dR][hArg]W[dP]T) (SMILES CC[C@H](C)[C@@H]1NC(=O)[C@H]([C@@H](C)O)NC(=O)[C@H]2CCCN2C(=O)[C@H](Cc2c[nH]c3ccccc23)NC(=O)[C@H](CCCCNC(=N)N)NC(=O)[C@@H](CCCNC(=N)N)NC1=O) [cyclo(-Ile-^DArg-hArg-Trp-^DPro-Thr-)] |
| 948 nM | cyclo(I[dR]RW[dPro(cis-4-NH2)]T) (SMILES CC[C@H](C)[C@@H]1NC(=O)[C@H]([C@@H](C)O)NC(=O)[C@H]2C[C@@H](N)CN2C(=O)[C@H](Cc2c[nH]c3ccccc23)NC(=O)[C@H](CCCNC(=N)N)NC(=O)[C@@H](CCCNC(=N)N)NC1=O) [cyclo(-Ile-^DArg-Arg-Trp-^DPro((4R)NH2)-Thr-)] |
| 37.7 nM | cyclo([Cha][dR]RW[dP]T) (SMILES C[C@@H](O)[C@@H]1NC(=O)[C@H]2CCCN2C(=O)[C@H](Cc2c[nH]c3ccccc23)NC(=O)[C@H](CCCNC(=N)N)NC(=O)[C@@H](CCCNC(=N)N)NC(=O)[C@H](CC2CCCCC2)NC1=O) [cyclo(-Cha-^DArg-Arg-Trp-^DPro-Thr-)] |
| 8.2 nM | cyclo(I[dR]RW[dPip′][Pro(3S-OH)]) [cyclo(-Ile-^DArg-Arg-Trp-^DPip-Pro((3S)OH)-)] |
| 14.2 nM | cyclo(I[dR]RW[dTic]T) (SMILES CC[C@H](C)[C@@H]1NC(=O)[C@H]([C@@H](C)O)NC(=O)[C@H]2Cc3ccccc3CN2C(=O)[C@H](Cc2c[nH]c3ccccc23)NC(=O)[C@H](CCCNC(=N)N)NC(=O)[C@@H](CCCNC(=N)N)NC1=O) [cyclo(-Ile-^DArg-Arg-Trp-^DTic-Thr-)] |
| 48.4 nM | cyclo(I[dDab]RW[dP]T) (SMILES CC[C@H](C)[C@@H]1NC(=O)[C@H]([C@@H](C)O)NC(=O)[C@H]2CCCN2C(=O)[C@H](Cc2c[nH]c3ccccc23)NC(=O)[C@H](CCCNC(=N)N)NC(=O)[C@@H](CCN)NC1=O) [cyclo(-Ile-^DDab-Arg-Trp-^DPro-Thr-)] |
| 53.2 nM | cyclo(I[dT]RW[dP]T) (SMILES CC[C@H](C)[C@@H]1NC(=O)[C@H]([C@@H](C)O)NC(=O)[C@H]2CCCN2C(=O)[C@H](Cc2c[nH]c3ccccc23)NC(=O)[C@H](CCCNC(=N)N)NC(=O)[C@@H]([C@H](C)O)NC1=O) [cyclo(-Ile-^DThr-Arg-Trp-^DPro-Thr-)] |
| 132 nM | cyclo(W[dF]WR[dP][Mor]) (reading uncertain; also: printed as cyclo(-Trp-^DPhe-Trp-Arg-^DPro-Mor-)) [cyclo(-Trp-^DPhe-Trp-Arg-^DPro-Mor-)] |
| 518 nM | cyclo(I[dR][Orn(A41)]W[dP]T) (reading uncertain; also: printed as cyclo(-Ile-^DArg-Orn(A41)-Trp-^DPro-Thr-)) [cyclo(-Ile-^DArg-Orn(A41)-Trp-^DPro-Thr-)] |
| 23.3 nM | cyclo(I[dOrn]RW[dP]T) (SMILES CC[C@H](C)[C@@H]1NC(=O)[C@H]([C@@H](C)O)NC(=O)[C@H]2CCCN2C(=O)[C@H](Cc2c[nH]c3ccccc23)NC(=O)[C@H](CCCNC(=N)N)NC(=O)[C@@H](CCCN)NC1=O) [cyclo(-Ile-^DOrn-Arg-Trp-^DPro-Thr-)] |
| 76.8 nM | cyclo(I[dR]R[2Nal][dP][Pro(3S-OH)]) (SMILES CC[C@H](C)[C@@H]1NC(=O)[C@@H]2[C@@H](O)CCN2C(=O)[C@H]2CCCN2C(=O)[C@H](Cc2ccc3ccccc3c2)NC(=O)[C@H](CCCNC(=N)N)NC(=O)[C@@H](CCCNC(=N)N)NC1=O) [cyclo(-Ile-^DArg-Arg-2Nal-^DPro-Pro((3S)OH)-)] |
| 271 nM | cyclo(V[dR]RW[dP]T) (SMILES CC(C)[C@@H]1NC(=O)[C@H]([C@@H](C)O)NC(=O)[C@H]2CCCN2C(=O)[C@H](Cc2c[nH]c3ccccc23)NC(=O)[C@H](CCCNC(=N)N)NC(=O)[C@@H](CCCNC(=N)N)NC1=O) [cyclo(-Val-^DArg-Arg-Trp-^DPro-Thr-)] |
| 336 nM | cyclo(I[dR][Orn(Ar7)]W[dP]T) (reading uncertain; also: printed as cyclo(-Ile-^DArg-Orn(Ar7)-Trp-^DPro-Thr-)) [cyclo(-Ile-^DArg-Orn(Ar7)-Trp-^DPro-Thr-)] |
| 414 nM | cyclo(H[dW]HW[dP][Pro((4S)NHBz)]) (SMILES O=C(N[C@H]1C[C@H]2C(=O)N[C@@H](Cc3c[nH]cn3)C(=O)N[C@H](Cc3c[nH]c4ccccc34)C(=O)N[C@@H](Cc3c[nH]cn3)C(=O)N[C@@H](Cc3c[nH]c4ccccc34)C(=O)N3CCC[C@@H]3C(=O)N2C1)c1ccccc1) [cyclo(-His-^DTrp-His-Trp-^DPro-Pro((4S)NHBz)-)] |
| 6.6 nM | cyclo(W[dF]WR[dPro(cis-4-NH2)][(4S)Hyp(Bn)]) (SMILES N=C(N)NCCC[C@@H]1NC(=O)[C@H](Cc2c[nH]c3ccccc23)NC(=O)[C@@H](Cc2ccccc2)NC(=O)[C@H](Cc2c[nH]c3ccccc23)NC(=O)[C@@H]2C[C@H](OCc3ccccc3)CN2C(=O)[C@H]2C[C@@H](N)CN2C1=O) [cyclo(-Trp-^DPhe-Trp-Arg-^DPro((4R)NH2)-(4S)-Hyp(Bn)-)] |
| 632 nM | cyclo(I[dR]RW[dHyp]T) (not fully specified) [cyclo(-Ile-^DArg-Arg-Trp-^DPro((4S)OH)-Thr-)] |
| 6.7 nM | cyclo([Chg][dR]RW[dP]T) (SMILES C[C@@H](O)[C@@H]1NC(=O)[C@H]2CCCN2C(=O)[C@H](Cc2c[nH]c3ccccc23)NC(=O)[C@H](CCCNC(=N)N)NC(=O)[C@@H](CCCNC(=N)N)NC(=O)[C@H](C2CCCCC2)NC1=O) [cyclo(-Chg-^DArg-Arg-Trp-^DPro-Thr-)] |
| 2.8 nM | cyclo([Nle][dR]RW[dP]T) (SMILES CCCC[C@@H]1NC(=O)[C@H]([C@@H](C)O)NC(=O)[C@H]2CCCN2C(=O)[C@H](Cc2c[nH]c3ccccc23)NC(=O)[C@H](CCCNC(=N)N)NC(=O)[C@@H](CCCNC(=N)N)NC1=O) [cyclo(-Nle-^DArg-Arg-Trp-^DPro-Thr-)] |
| 36.9 nM | cyclo(W[dF]WR[dP][Pro((4S)NH2)]) [cyclo(-Trp-^DPhe-Trp-Arg-^DPro-Pro((4S)NH2)-)] |
| 3.2 nM | cyclo(I[dR][Orn(A56)]W[dP]T) (reading uncertain; also: printed as cyclo(-Ile-^DArg-Orn(A56)-Trp-^DPro-Thr-)) [cyclo(-Ile-^DArg-Orn(A56)-Trp-^DPro-Thr-)] |
| 4.6 nM | cyclo(I[dR][Orn(Ar4)]W[dP]T) (reading uncertain; also: printed as cyclo(-Ile-^DArg-Orn(Ar4)-Trp-^DPro-Thr-)) [cyclo(-Ile-^DArg-Orn(Ar4)-Trp-^DPro-Thr-)] |
| 816 nM | cyclo(I[dR][Orn]W[dP]T) (SMILES CC[C@H](C)[C@@H]1NC(=O)[C@H]([C@@H](C)O)NC(=O)[C@H]2CCCN2C(=O)[C@H](Cc2c[nH]c3ccccc23)NC(=O)[C@H](CCCN)NC(=O)[C@@H](CCCNC(=N)N)NC1=O) [cyclo(-Ile-^DArg-Orn-Trp-^DPro-Thr-)] |
| 76.9 nM | cyclo(R[dF]WR[dP][(4S)Hyp(Bn)]) (SMILES N=C(N)NCCC[C@@H]1NC(=O)[C@@H]2C[C@H](OCc3ccccc3)CN2C(=O)[C@H]2CCCN2C(=O)[C@H](CCCNC(=N)N)NC(=O)[C@H](Cc2c[nH]c3ccccc23)NC(=O)[C@@H](Cc2ccccc2)NC1=O) [cyclo(-Arg-^DPhe-Trp-Arg-^DPro-(4S)-Hyp(Bn)-)] |
